The chains are these.
B1: SmBiT-C-CaSR-WT [not stated] / LgBiT-N-AP2σ-WT [not stated] (parent)
chain 1: not shown
chain 2: YGPDQRAQKKGDIILGGLFPIHFGVAAKDQDLKSRPESVECIRYNFRGFRWLQAMIFAIEEINSSPALLPNLTLGYRIFDTCNTVSKALEATLSFVAQNKIDSLNLDEFCNCSEHIPSTIAVVGATGSGVSTAVANLLGLFYIPQVSYASSSRLLSNKNQFKSFLRTIPNDEHQATAMADIIEYFRWNWVGTIAADDDYGRPGIEKFREEAEERDICIDFSELISQYSDEEEIQHVVEVIQNSTAKVIVVFSSGPDLEPLIKEIVRRNITGKIWLASEAWASSSLIAMPQYFHVVGGTIGFALKAGQIPGFREFLKKVHPRKSVHNGFAKEFWEETFNCHLQEGAKGPLPVDTFLRGHEESGDRFSNSSTAFRPLCTGDENISSVETPYIDYTHLRISYNVYLAVYSIAHALQDIYTCLPGRGLFTNGSCADIKKVEAWQVLKHLRHLNFTNNMGEQVTFDECGDLVGNYSIINWHLSPEDGSIVFKEVGYYNVYAKKGERLFINEEKILWSGFSREVPFSNCSRDCLAGTRKGIIEGEPTCCFECVECPDGEYSDETDASACNKCPDDFWSNENHTSCIAKEIEFLSWTEPFGIALTLFAVLGIFLTAFVLGVFIKFRNTPIVKATNRELSYLLLFSLLCCFSSSLFFIGEPQDWTCRLRQPAFGISFVLCISCILVKTNRVLLVFEAKIPTSFHRKWWGLNLQFLLVFLCTFMQIVICVIWLYTAPPSSYRNQELEDEIIFITCHEGSLMALGFLIGYTCLLAAICFFFAFKSRKLPENFNEAKFITFSMLIFFIVWISFIPAYASTYGKFVSAVEVIAILAASFGLLACIFFNKIYIILFKPSRNTIEEVRCSTAAHAFKVAARATLRRSNVSRKRSSSLGGSTGSTPSSSISSKSNSEDPFPQPERQKQQQPLALTQQEQQQQPLTLPQQQRSQQQPRCKQKVIFGSGTVTFSLSFDEPQKNAMAHRNSTHQNSLEAQKSSDTLTRHEPLLPLQCGETDLDLTVQETGLQGPVGGDQRPEVEDPEELSPALVVSSSQSFVISGGGSTVTENVVNS

The variants in the first test derive from B1. In words: NanoBiT split-luciferase. Conditions: with LgBiT-N-AP2σ-WT; N = 6; read off a plot.
Take chain 2 L994A L995A: the response was determined as 3.2.

For the variant chain 2 R990A H991A E992A P993A L994A L995A, the response is 3.6.

Staying with this test, now noted: with LgBiT-N-AP2σ-WT; N = 7; read off a plot.
Regarding chain 2 L994A L995A, the response worked out at 2.4.

For the variant chain 2 T987A, the response amounted to 4.9.

With chain 2 S985A, the response worked out at 4.9.

On to chain 2 T989A, for which the response was determined as 4.7.

Turning to chain 2 S959A, the response was 4.8.

Still in this test, the particulars now being: with LgBiT-N-AP2σ-WT; N = 10; read off a plot.
Take chain 2 L994A L995A: the response was determined as 2.1.

For the variant chain 2 P993A, the response stood at 4.5.

In the case of chain 2 R990A, the response was 3.8.

Consider chain 2 H991A, for which the response is 3.

The values above are taken from article PMC12159506.
